According to IntAct's records for PubMed 18509061:

B1: Histone deacetylase 7 (Mus musculus), Q8C2B3-1 (parent)
chain: MHSPGAGCPALQPDTPGSQPQPMDLRVGQRPTVEPPPEPALLTLQHPQRLHRHLFLAGLHQQQRSAEPMRLSMDPPMPELQGGQQEQELRQLLNKDKSKRSAVASSVVKQKLAEVILKKQQAALERTVHPSSPSIPYRTLEPLDTEGAARSVLSSFLPPVPSLPTEPPEHFPLRKTVSEPNLKLRYKPKKSLERRKNPLLRKESAPPSLRRRPAETLGDSSPSSSSTPASGCSSPNDSEHGPNPALGSEADGDRRTHSTLGPRGPVLGNPHAPLFLHHGLEPEAGGTLPSRLQPILLLDPSVSHAPLWTVPGLGPLPFHFAQPLLTTERLSGSGLHRPLNRTRSEPLPPSATASPLLAPLQPRQDRLKPHVQLIKPAISPPQRPAKPSEKPRLRQIPSAEDLETDGGGVGPMANDGLEHRESGRGPPEGRGSISLQQHQQVPPWEQQHLAGRLSQGSPGDSVLIPLAQVGHRPLSRTQSSPAAPVSLLSPEPTCQTQVLNSSETPATGLVYDSVMLKHQCSCGDNSKHPEHAGRIQSIWSRLQERGLRSQCECLRGRKASLEELQSVHSERHVLLYGTNPLSRLKLDNGKLTGLLAQRTFVMLPCGGVGVDTDTIWNELHSSNAARWAAGSVTDLAFKVASRELKNGFAVVRPPGHHADHSTAMGFCFFNSVAIACRQLQQHGKASKILIVDWDVHHGNGTQQTFYQDPSVLYISLHRHDDGNFFPGSGAVDEVGTGSGEGFNVNVAWAGGLDPPMGDPEYLAAFRIVVMPIAREFAPDLVLVSAGFDAAEGHPAPLGGYHVSAKCFGYMTQQLMNLAGGAVVLALEGGHDLTAICDASEACVAALLGNKVDPLSEESWKQKPNLSAIRSLEAVVRVHRKYWGCMQRLASCPDSWLPRVPGADAEVEAVTALASLSVGILAEDRPSERLVEEEEPMNL
partner: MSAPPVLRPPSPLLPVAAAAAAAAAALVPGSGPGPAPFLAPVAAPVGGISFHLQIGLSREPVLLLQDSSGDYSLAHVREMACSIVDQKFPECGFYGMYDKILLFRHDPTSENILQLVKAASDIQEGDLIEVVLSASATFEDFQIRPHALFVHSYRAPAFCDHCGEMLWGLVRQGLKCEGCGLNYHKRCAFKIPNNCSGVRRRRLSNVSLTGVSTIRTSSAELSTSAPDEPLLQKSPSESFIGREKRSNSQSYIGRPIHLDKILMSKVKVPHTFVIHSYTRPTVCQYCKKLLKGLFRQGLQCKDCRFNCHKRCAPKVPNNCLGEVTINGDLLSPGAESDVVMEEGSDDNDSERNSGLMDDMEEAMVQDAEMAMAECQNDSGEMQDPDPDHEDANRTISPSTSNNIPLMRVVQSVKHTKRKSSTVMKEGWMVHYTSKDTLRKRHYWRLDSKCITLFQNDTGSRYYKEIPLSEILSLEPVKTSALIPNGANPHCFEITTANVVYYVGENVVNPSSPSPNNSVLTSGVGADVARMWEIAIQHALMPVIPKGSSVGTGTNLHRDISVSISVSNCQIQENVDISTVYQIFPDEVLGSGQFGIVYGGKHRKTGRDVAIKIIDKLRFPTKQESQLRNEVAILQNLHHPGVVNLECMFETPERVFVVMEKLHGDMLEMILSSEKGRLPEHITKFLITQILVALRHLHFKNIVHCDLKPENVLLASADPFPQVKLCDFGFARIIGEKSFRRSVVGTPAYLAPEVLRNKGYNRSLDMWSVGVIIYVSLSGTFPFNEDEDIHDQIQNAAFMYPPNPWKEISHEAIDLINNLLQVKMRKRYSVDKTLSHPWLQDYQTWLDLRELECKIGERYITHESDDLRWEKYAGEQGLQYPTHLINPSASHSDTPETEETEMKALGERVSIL

Variants of: B1
Conditions: with kpcd1_human PRKD1, Q15139

**Q.** How did the “effect of a mutation on the interaction” value turn out when S178A;S344A;S479A was run?
**A.** Its value is “increasing interaction strength”.
